Laboratory results reported in the Human Domainome abundance scans (Beltran et al. 2025).
± gives the uncertainty stated by the source.

B1: Ankyrin-3, residues 4094 to 4171; numbered along this chain, Q12955 (parent)
chain: MAIVADHLGLSWTELARELNFSVDEINQIRVENPNSLISQSFMLLKKWVTRDGKNATTDALTSVLTKINRIDIVTLLE

Variants of: B1
Experiment: abundance fitness (aPCA) (normalised: wild type 0, dead -1); higher = more abundant; growth selection in yeast, the domain comes from the species named
Settings: Homo sapiens

In order of falling abundance fitness:
1. MAIVADHLGLSWTELARELNFSVDEINQIRVENPNSLISQSFMLLNKWVTRDGKNATTDALTSVLTKINRIDIVTLLE [K46N]  -0.044 ± 0.11
2. MAIVADHLGLSWTELARELNFSVDEINQIRVENPNSLISQSFMLLTKWVTRDGKNATTDALTSVLTKINRIDIVTLLE [K46T]  -0.061 ± 0.067
3. MAIVADHLGLSWTELARELNFSVDEINQIRVENPNSLISQSFMMLKKWVTRDGKNATTDALTSVLTKINRIDIVTLLE [L44M]  -0.074 ± 0.071
4. MAIVADHLGLSWTELARELNFSVDEINQIRVENPNSLISQSFMCLKKWVTRDGKNATTDALTSVLTKINRIDIVTLLE [L44C]  -0.116 ± 0.09
5. MAIVADHLGLSWTELARELNFSVDEINQIRVENPNSLISQSFMVLKKWVTRDGKNATTDALTSVLTKINRIDIVTLLE [L44V]  -0.171 ± 0.047
6. MAIVADHLGLSWTELARELNFSVDEINQIRVENPNSLISQSFMLMKKWVTRDGKNATTDALTSVLTKINRIDIVTLLE [L45M]  -0.193 ± 0.085
7. MAIVADHLGLSWTELARELNFSVDEINQIRVENPNSLISQSFMLIKKWVTRDGKNATTDALTSVLTKINRIDIVTLLE [L45I]  -0.302 ± 0.12
8. MAIVADHLGLSWTELARELNFSVDEINQIRVENPNSLISQSFMILKKWVTRDGKNATTDALTSVLTKINRIDIVTLLE [L44I]  -0.371 ± 0.18
9. MAIVADHLGLSWTELARELNFSVDEINQIRVENPNSLISQSFMLLVKWVTRDGKNATTDALTSVLTKINRIDIVTLLE [K46V]  -0.373 ± 0.062
10. MAIVADHLGLSWTELARELNFSVDEINQIRVENPNSLISQSFMALKKWVTRDGKNATTDALTSVLTKINRIDIVTLLE [L44A]  -0.391 ± 0.064
11. MAIVADHLGLSWTELARELNFSVDEINQIRVENPNSLISQSFMLCKKWVTRDGKNATTDALTSVLTKINRIDIVTLLE [L45C]  -0.444 ± 0.11
12. MAIVADHLGLSWTELARELNFSVDEINQIRVENPNSLISQSFMLHKKWVTRDGKNATTDALTSVLTKINRIDIVTLLE [L45H]  -0.449 ± 0.25
13. MAIVADHLGLSWTELARELNFSVDEINQIRVENPNSLISQSFMLLWKWVTRDGKNATTDALTSVLTKINRIDIVTLLE [K46W]  -0.541 ± 0.13
14. MAIVADHLGLSWTELARELNFSVDEINQIRVENPNSLISQSFMTLKKWVTRDGKNATTDALTSVLTKINRIDIVTLLE [L44T]  -0.561 ± 0.087
15. MAIVADHLGLSWTELARELNFSVDEINQIRVENPNSLISQSFMLVKKWVTRDGKNATTDALTSVLTKINRIDIVTLLE [L45V]  -0.603 ± 0.084
16. MAIVADHLGLSWTELARELNFSVDEINQIRVENPNSLISQSFMLLYKWVTRDGKNATTDALTSVLTKINRIDIVTLLE [K46Y]  -0.665 ± 0.16
17. MAIVADHLGLSWTELARELNFSVDEINQIRVENPNSLISQSFMYLKKWVTRDGKNATTDALTSVLTKINRIDIVTLLE [L44Y]  -0.693 ± 0.27
18. MAIVADHLGLSWTELARELNFSVDEINQIRVENPNSLISQSFMDLKKWVTRDGKNATTDALTSVLTKINRIDIVTLLE [L44D]  -0.695 ± 0.32
19. MAIVADHLGLSWTELARELNFSVDEINQIRVENPNSLISQSFMHLKKWVTRDGKNATTDALTSVLTKINRIDIVTLLE [L44H]  -0.75 ± 0.33
20. MAIVADHLGLSWTELARELNFSVDEINQIRVENPNSLISQSFMQLKKWVTRDGKNATTDALTSVLTKINRIDIVTLLE [L44Q]  -0.784 ± 0.16
21. MAIVADHLGLSWTELARELNFSVDEINQIRVENPNSLISQSFMRLKKWVTRDGKNATTDALTSVLTKINRIDIVTLLE [L44R]  -0.796 ± 0.1
22. MAIVADHLGLSWTELARELNFSVDEINQIRVENPNSLISQSFMWLKKWVTRDGKNATTDALTSVLTKINRIDIVTLLE [L44W]  -0.806 ± 0.07
23. MAIVADHLGLSWTELARELNFSVDEINQIRVENPNSLISQSFMLQKKWVTRDGKNATTDALTSVLTKINRIDIVTLLE [L45Q]  -0.833 ± 0.2
24. MAIVADHLGLSWTELARELNFSVDEINQIRVENPNSLISQSFMLEKKWVTRDGKNATTDALTSVLTKINRIDIVTLLE [L45E]  -0.851 ± 0.28
25. MAIVADHLGLSWTELARELNFSVDEINQIRVENPNSLISQSFMLAKKWVTRDGKNATTDALTSVLTKINRIDIVTLLE [L45A]  -0.862 ± 0.13
26. MAIVADHLGLSWTELARELNFSVDEINQIRVENPNSLISQSFMLWKKWVTRDGKNATTDALTSVLTKINRIDIVTLLE [L45W]  -0.862 ± 0.14
27. MAIVADHLGLSWTELARELNFSVDEINQIRVENPNSLISQSFMLRKKWVTRDGKNATTDALTSVLTKINRIDIVTLLE [L45R]  -0.865 ± 0.095
28. MAIVADHLGLSWTELARELNFSVDEINQIRVENPNSLISQSFMPLKKWVTRDGKNATTDALTSVLTKINRIDIVTLLE [L44P]  -0.867 ± 0.15
29. MAIVADHLGLSWTELARELNFSVDEINQIRVENPNSLISQSFMLSKKWVTRDGKNATTDALTSVLTKINRIDIVTLLE [L45S]  -0.881 ± 0.12
30. MAIVADHLGLSWTELARELNFSVDEINQIRVENPNSLISQSFMELKKWVTRDGKNATTDALTSVLTKINRIDIVTLLE [L44E]  -0.902 ± 0.39
31. MAIVADHLGLSWTELARELNFSVDEINQIRVENPNSLISQSFMLGKKWVTRDGKNATTDALTSVLTKINRIDIVTLLE [L45G]  -0.906 ± 0.1
32. MAIVADHLGLSWTELARELNFSVDEINQIRVENPNSLISQSFMSLKKWVTRDGKNATTDALTSVLTKINRIDIVTLLE [L44S]  -0.914 ± 0.13
33. MAIVADHLGLSWTELARELNFSVDEINQIRVENPNSLISQSFMLLPKWVTRDGKNATTDALTSVLTKINRIDIVTLLE [K46P]  -0.915 ± 0.12
34. MAIVADHLGLSWTELARELNFSVDEINQIRVENPNSLISQSFMLPKKWVTRDGKNATTDALTSVLTKINRIDIVTLLE [L45P]  -0.92 ± 0.15
35. MAIVADHLGLSWTELARELNFSVDEINQIRVENPNSLISQSFMGLKKWVTRDGKNATTDALTSVLTKINRIDIVTLLE [L44G]  -0.93 ± 0.11
